Experimental data published in patent publication US20210246224A1 (Regeneron, published 2021).
Values belong to the binder of their own block, whether it stands above or below them.

Tests used:
[1] = target: T1, human HER2 expressed on cells (cancer cell lines and normal primary cultures) (human, UniProt P04626 23-1255); assay: cell-based or functional assay
[2] = target: T2, human APLP2 extracellular domain expressed with a C-terminal myc-myc-hexahistidine tag (human, UniProt Q06481 32-692); assay: SPR (Biacore 4000), antibody captured on anti-human Fc, hAPLP2-MMH injected, 37 C
T2 construct: also called hAPLP2-MMH; APLP2.mmh
Experimental: (§1) Equilibrium dissociation constants (KD values) for HER2 and APLP2 binding to purified anti-HER2xAPLP2 bispecific and parental antibodies were determined using a real-time surface plasmon resonance biosensor using a Biacore 4000 instrument. The Biacore sensor surface was first derivatized by amine coupling with a monoclonal mouse anti-human Fc antibody (GE, Cat #BR-1008-39) to capture anti-HER2xAPLP2 bispecific monoclonal antibodies. […] Kinetic association rate constant (ka) and dissociation rate constant (kd) were determined by fitting the real-time sensorgrams to a 1:1 binding model using Scrubber 2.0c curve fitting software. Binding dissociation equilibrium constants (KD) and dissociative half-lives (t1/2) were calculated from the kinetic rate constants as: […]

[3] = target: T1, human HER2 expressed on cells (cancer …); assay: imaging, Alexa647-labelled antibody 10 ug/mL at 4 C on SKBR3 cells; signal per nuclei, normalised to the highest cell line
Experimental: (§2) To test the ability of bispecific anti-HER2xAPLP2 molecules described herein to bind to cells lines expressing various levels of HER2, a high content imaging assay was performed. […] Cells were plated on collagen-coated, black wall, 96-well, optical plates (Greiner, Cat #655936) at 2.5×10⁵ cells per well in their appropriate culture media, which is described for each cell line/culture in Table 6, and incubated overnight at 37° C. in 5% CO₂.
(§3) After, cells were washed twice with cold DMEM+10% FBS. […] After, the solution was replaced with DPBS/CM. Binding of the bispecific antibodies to each of the cell types was measured using an Image Xpress^Micro automatic microscope (Molecular Devices). […] (See also FIG. 2.)
(§4) The signal of antibody binding (mean intensity fluorescence of Alexa647) divided by the nuclei signals was determined for each condition using MetaXpress software (Molecular Devices). Values were normalized to the cell line displaying the highest antibody binding signal.

[4] = target: T1, human HER2 expressed on cells (cancer …); assay: imaging, Alexa647-labelled antibody 10 ug/mL at 4 C on MDA-MB-453 cells; signal per nuclei, normalised to the highest cell line
Experimental: as §3, §4

[5] = target: T2, human APLP2 extracellular domain …; assay: SPR, antibody captured, hAPLP2-MMH injected, 25 C
[6] = target: T1, human HER2 expressed on cells (cancer …); assay: imaging, Alexa647-labelled antibody 10 ug/mL at 4 C on NLE cells; signal per nuclei, normalised to the highest cell line
Experimental: as §3, §4

[7] = target: T1, human HER2 expressed on cells (cancer …); assay: imaging, Alexa647-labelled antibody 10 ug/mL at 4 C on MDA-MB-361 cells; signal per nuclei, normalised to the highest cell line
Experimental: as §3, §4

[8] = target: T1, human HER2 expressed on cells (cancer …); assay: imaging, Alexa647-labelled antibody 10 ug/mL at 4 C on MCF7 cells; signal per nuclei, normalised to the highest cell line
Experimental: as §3, §4

[9] = target: T1, human HER2 expressed on cells (cancer …); assay: imaging, Alexa647-labelled antibody 10 ug/mL at 4 C on JIMT-1 cells; signal per nuclei, normalised to the highest cell line
Experimental: as §3, §4

[10] = target: T1, human HER2 expressed on cells (cancer …); assay: imaging, Alexa647-labelled antibody 10 ug/mL at 4 C on T47D cells; signal per nuclei, normalised to the highest cell line
Experimental: as §3, §4

[11] = target: T3, human HER2 extracellular domain expressed with a C-terminal myc-myc-hexahistidine tag (human, UniProt P04626 23-652); assay: SPR (Biacore 4000), antibody captured on anti-human Fc, hHER2-MMH injected, 37 C
T3 construct: also called hHER2-MMH; HER2.mmh
Experimental: as §1

[12] = target: T1, human HER2 expressed on cells (cancer …); assay: imaging, Alexa647-labelled antibody 10 ug/mL at 4 C on NBE cells; signal per nuclei, normalised to the highest cell line
Experimental: as §3, §4

[13] = target: T1, human HER2 expressed on cells (cancer …); assay: imaging, Alexa647-labelled antibody 10 ug/mL at 4 C on BT483 cells; signal per nuclei, normalised to the highest cell line
Experimental: as §2, §3, §4

[14] = target: T1, human HER2 expressed on cells (cancer …); assay: imaging, Alexa647-labelled antibody 10 ug/mL at 4 C on MDA-MB-468 cells; signal per nuclei, normalised to the highest cell line
Experimental: as §3, §4

B1: H4H25018D-SMCC-DM1 (bispecific antibody, IgG4, V domains shown)
VH 1: QVQLQESGPGLVKPSQTLSLTCTVSGGSISSGHYFWSWIRQHPGKGLEWIGYIFYSGSTHYNPSLKSRLSISVDTSKNQFSLRLTSVTAADTAVYYCAREEGDYNFWDVDYVPGHFDYWGQGTLVTVSS
VH 2: EVQLVESGGGLVQPGRSLRLSCVASGFTFADYAMHWVRQAPGKGLEWVSGISWNSGNIDYADSVKGRFTISRDNAKNSLYLQMNSLRTEDTALYYCAKVRIVVAGYYYYYYGMDVWGQGTTVTVSS
VL: not shown
modifications: SMCC-DM1 on lysines, sites not stated
- IC50 (nM) of cell killing, JIMT-1 cells, 6 days, nuclei count [1]: 0.07 nM

B3: H4H25018D-Compound II (bispecific antibody, V domains shown)
VH 1: B1 VH 1
VH 2: B1 VH 2
VL: not shown
modifications: Compound II on reduced interchain cysteines
- IC50 (nM) of cell killing, JIMT-1 cells, 6 days, nuclei count [1]: 0.3 nM

B4: H4H25019D-SMCC-DM1 (bispecific antibody, V domains shown)
VH 1: QVQLVQSGPEVKKPGASVKVSCKASGYTFPNFGISWVRQAPGQGLEWMGWIAPYNVATNYAPKLQGRVTMTTDTSTSTAYMELRSLRSDDTAVYYCARWGAGYMGYYYYGMDVWGQGTTVTVSS
VH 2: B1 VH 2
VL: not shown
modifications: SMCC-DM1 on lysines, sites not stated
- IC50 (nM) of cell killing, JIMT-1 cells, 6 days, nuclei count [1]: 0.13 nM

B6: H4H25018D-Compound I (bispecific antibody, V domains shown)
VH 1: B1 VH 1
VH 2: B1 VH 2
VL: not shown
modifications: Compound I on lysines, sites not stated
- IC50 (nM) of cell killing, JIMT-1 cells, 6 days, nuclei count [1]: 0.2 nM

B8: H4H25019D-Compound I (bispecific antibody, V domains shown)
VH 1: B4 VH 1
VH 2: B1 VH 2
VL: not shown
modifications: Compound I on lysines, sites not stated
- IC50 (nM) of cell killing, JIMT-1 cells, 6 days, nuclei count [1]: 0.75 nM

B9: H4H25019D-Compound II (bispecific antibody, V domains shown)
VH 1: B4 VH 1
VH 2: B1 VH 2
VL: not shown
modifications: Compound II on reduced interchain cysteines
- IC50 (nM) of cell killing, JIMT-1 cells, 6 days, nuclei count [1]: 0.9 nM

Further lines, with some results ahead:

- 100 nM hAPLP2-MMH Bound (RU) [2]: 0 RU
B2: H4H13055P2 (antibody, V domains shown)
VH: B1 VH 1
VL: not shown
notes: fully human antibody; also called anti-HER2 parental antibody
- binding result [2]: no binding (tested: 300 nM highest concentration injected)

- Antibody bound (% of highest) [3]: 100%
- Antibody bound (% of highest) [4]: 25%
- 90 nM hAPLP2-MMH Bound (RU) [5]: 17.1 RU
- Kd [5]: 9.98 nM
- t½ [5]: 12.2 min
- Antibody bound (% of highest) [6]: 4%
- Antibody bound (% of highest) [7]: 30%
- 100 nM hAPLP2-MMH Bound (RU) [2]: 23 RU
- Kd [2]: 235 nM
- t½ [2]: 1.1 min
- Antibody bound (% of highest) [8]: 5%
- Antibody bound (% of highest) [9]: 17%
- Antibody bound (% of highest) [10]: 6%
- Kd [11]: 3.37 nM
- t½ [11]: 16 min
- Antibody bound (% of highest) [12]: 5%
B5: H4H25014D (bispecific antibody, IgG4, V domains shown)
VH 1: B1 VH 1
VH 2: EVQLVESGGGLVQPGGSLRLSCAASGFTFSTYVMSWVRQAPGKGPEWVSGISGRTGTTYYADSVKGRFTISRDNSKNTLYLQMNSLRAEDTAVYYCASRITAAGRGYYYYYGMDVWGRGTTVTVSS
VL: not shown
notes: Wild-type kappa CL and a modified (chimeric) IgG4 CH domain as set forth in US20140243504A1; also called bispecific anti-HER2xAPLP2 antibody

- 90 nM hAPLP2-MMH Bound (RU) [5]: 60.5 RU
- Kd [5]: 11.3 nM
- t½ [5]: 11 min
- 100 nM hAPLP2-MMH Bound (RU) [2]: 114 RU
- Kd [2]: 124 nM
- t½ [2]: 1.1 min
B7: H4xH21387P2 (antibody, V domains shown)
VH: B1 VH 2
VL: not shown
notes: fully human antibody; also called anti-APLP2 parental antibody

- 90 nM hAPLP2-MMH Bound (RU) [5]: 36.6 RU
- Kd [5]: 11.2 nM
- t½ [5]: 10.9 min
- 100 nM hAPLP2-MMH Bound (RU) [2]: 34 RU
- Kd [2]: 176 nM
- t½ [2]: 1.3 min
B10: H4xH21362P2 (antibody, V domains shown)
VH: B5 VH 2
VL: not shown
notes: as for B7

- 90 nM hAPLP2-MMH Bound (RU) [5]: 52.1 RU
- Kd [5]: 21.7 nM
- t½ [5]: 0.5 min
- 100 nM hAPLP2-MMH Bound (RU) [2]: 48 RU
- Kd [2]: 899 nM
- t½ [2]: 0.03 min
B11: H4xH21371P2 (antibody, V domains shown)
VH: QVQLVQSGVEVKKPGASVKVSCKASGYTFTDYGISWVRQAPGQGLEWMGWISAHNGNTNYAQKLQGRVTMTTDTSTNTAYMELRSLRSDDTAVYYCARRNWKYFDYWGQGTLVTVSS
VL: not shown
notes: as for B7

- Antibody bound (% of highest) [13]: 22%
- Antibody bound (% of highest) [3]: 100%
- Antibody bound (% of highest) [4]: 28%
- Antibody bound (% of highest) [6]: 7%
- Antibody bound (% of highest) [7]: 37%
- 100 nM hAPLP2-MMH Bound (RU) [2]: 24 RU
- Kd [2]: 976 nM
- t½ [2]: 0.04 min
- Antibody bound (% of highest) [8]: 7%
- Antibody bound (% of highest) [9]: 17%
- Antibody bound (% of highest) [14]: 1%
- Antibody bound (% of highest) [10]: 8%
- Antibody bound (% of highest) [12]: 8%
B12: H4H25021D (bispecific antibody, IgG4, V domains shown)
VH 1: B4 VH 1
VH 2: B11 VH
VL: not shown
notes: as for B5

- 100 nM hAPLP2-MMH Bound (RU) [2]: -3 RU
B13: H4H13050P2 (antibody, V domains shown)
VH: B4 VH 1
VL: not shown
notes: Names starting with H4 or H4H denote fully human antibodies; also called anti-HER2 parental antibody
